Assay results from patent publication US8168594B2, “Method for treating celiac disease” (Alba Therapeutics Corporation, priority 2006, dated 2012).

How the values were obtained:
[1] = Release from delayed-release particles in Simulated Gastric Fluid (dissolution apparatus, HPLC); type: physicochemical; settings: delayed-release particles containing 4-6% peptide; SGF containing 0.1% v/v Tween 80K, 37° C.; time course of 60 minutes
Experimental: (§1) The stability of delayed-release particles containing 4-6% tight junction antagonist peptide (SEQ ID NO: 1) was performed. Delayed-release particles prepared as described above were exposed to Simulated Gastric Fluid (SGF) containing 0.1% v/v Tween 80K under controlled temperature (37° C.±0.5° C.) and agitation in a dissolution apparatus for 1 hour. The beads were removed from the SGF and exposed to Simulated Intestinal Fluid (SIF) containing 0.1% v/v Tween 80K. Samples were pulled from the bath and analyzed by HPLC at 220 nm on a Inertsil ODS-2 HPLC Column (150 mm×3 mm, 5 μm) with an Inertsil ODS-2 HPLC Guard Column (20 mm×4.6 […], 5 μm). Mobile Phase A: 92:8 Water:ACN, 0.1% TFA Mobile Phase B: ACN, 0.1% TFA). The chromatographic conditions are shown below.
(§2) • Run time: 17 min • Detection: 220 nm • Response time: 0.5 sec • Column Temp.: 40° C.±1° C. • Auto Sampler Temp: 10° C.±2° c. • Injection Volume: 5 μl of solution
(§3) The percentage of total tight junction effector released is determined by comparison to a reference standard of the effector.
Simulated Gastric Fluid may be prepared as follows: per liter, place the following into a container: 2.0 gram sodium chloride, 7.0 mL concentrated hydrochloric acid, and 1.0 L water. Stir until completely dissolved. Check the pH and adjust to 1.2±0.1 with dilute HCl or NaOH. De-aerate medium. To this solution Tween 80 was added to 0.1% (v/v). […]

[2] = Release from delayed-release particles in Simulated Intestinal Fluid (dissolution apparatus, HPLC); type: physicochemical; settings: delayed-release particles containing 4-6% peptide, SIF containing 0.1% v/v Tween 80K, after 1 hour in SGF
Experimental: as §1, §2, §3
SIF can be prepared as follows: place the following into a container: 1.9 Kg distilled water, 136 g monobasic potassium phosphate, and 18.1 gram of sodium hydroxide. Stir until completely dissolved. Dilute the solution with 18.0 Kg water. Check the pH and adjust to 6.8±0.1 with dilute HCl or NaOH. De-aerated medium. […]

[3] = system: rabbit ileal mucosa; settings: cited from earlier work

Row | Substance | antagonist peptide released in simulated gastric fluid [1] | antagonist peptide released in simulated intestinal fluid within 15 minutes ([2]; within 15 minutes) | antagonist peptide released in simulated intestinal fluid within 60 minutes ([2]; within 60 minutes) | effect on intestinal permeability [3]
1 | GGVLVQPG [SEQ ID NO:1, tight junction antagonist peptide] | less than 8% | Over 90% | essentially all | 
2 | ZOT: Zonula occludens toxin produced by Vibrio cholerae; tight junction agonist |  |  |  | increased the intestinal permeability
